These results are taken from publication PMC3897223 (Biochemistry, 2013).

Where no end group is shown, it is not given here.

For this assay, the target named is T1, AtsB, anaerobic sulfatase maturating enzyme from Klebsiella pneumoniae, wild type, reconstituted (Klebsiella pneumoniae, UniProt Q9X758 1-395).
T1 sequence (looked up): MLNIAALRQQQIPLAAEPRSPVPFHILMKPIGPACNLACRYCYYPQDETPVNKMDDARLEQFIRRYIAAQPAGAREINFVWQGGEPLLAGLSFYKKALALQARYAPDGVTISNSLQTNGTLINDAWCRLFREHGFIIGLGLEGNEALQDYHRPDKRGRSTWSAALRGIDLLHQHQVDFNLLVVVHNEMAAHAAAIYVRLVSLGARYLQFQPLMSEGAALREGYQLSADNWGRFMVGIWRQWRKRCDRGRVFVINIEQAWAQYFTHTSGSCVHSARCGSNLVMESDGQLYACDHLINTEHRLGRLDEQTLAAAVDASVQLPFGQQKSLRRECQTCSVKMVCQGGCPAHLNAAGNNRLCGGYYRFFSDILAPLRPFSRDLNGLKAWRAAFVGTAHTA
The assay can be described thus: SEC.

With Ac-YYTSPMSAPARSMLLTGN [Kp18Ser peptide substrate], the binding result was “binds”.
